Earlier results as cited in paper doi:10.64898/2025.12.23.696170.

What was measured:
ATR2 (Homo sapiens) = ATR2 (Homo sapiens) (UniProt P50052)
ATR1 (Homo sapiens) = ATR1 (Homo sapiens) (UniProt P30556)
Sequence of UniProt P30556 (P30556 whole entry): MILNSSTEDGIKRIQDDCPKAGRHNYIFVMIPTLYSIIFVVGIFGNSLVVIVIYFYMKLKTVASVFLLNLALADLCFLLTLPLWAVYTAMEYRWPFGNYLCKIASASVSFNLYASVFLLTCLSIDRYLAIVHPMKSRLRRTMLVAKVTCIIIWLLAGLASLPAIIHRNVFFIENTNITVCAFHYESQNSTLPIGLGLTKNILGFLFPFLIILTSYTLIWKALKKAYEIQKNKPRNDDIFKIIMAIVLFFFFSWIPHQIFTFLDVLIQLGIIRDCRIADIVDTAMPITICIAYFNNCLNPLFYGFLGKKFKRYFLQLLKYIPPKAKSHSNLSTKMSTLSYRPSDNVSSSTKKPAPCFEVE

Sequence of UniProt P50052 (P50052 whole entry): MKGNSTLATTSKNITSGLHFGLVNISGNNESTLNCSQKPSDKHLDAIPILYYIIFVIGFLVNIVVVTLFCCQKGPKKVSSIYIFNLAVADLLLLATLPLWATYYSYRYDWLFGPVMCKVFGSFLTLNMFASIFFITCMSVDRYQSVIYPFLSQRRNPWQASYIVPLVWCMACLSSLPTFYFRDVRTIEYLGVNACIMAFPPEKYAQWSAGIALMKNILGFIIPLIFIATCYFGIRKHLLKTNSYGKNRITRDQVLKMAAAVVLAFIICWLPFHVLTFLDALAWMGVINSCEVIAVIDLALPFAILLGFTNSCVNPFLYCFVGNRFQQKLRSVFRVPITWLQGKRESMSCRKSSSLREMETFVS

In the case of Angiotensin II (from UniProt P01019), the Ki (ATR2 (Homo sapiens)) is listed as 0.3 nM and the Ki (ATR1 (Homo sapiens)) is listed as 0.2 nM.
